Experiments:
human Gas6 = target: T1, human Gas6 (Homo sapiens, UniProt Q14393); experiment: Kinetic Exclusion Assay (KinExA), Gas6-Axl binding, human Gas6
T1 sequence (Q14393 31-678): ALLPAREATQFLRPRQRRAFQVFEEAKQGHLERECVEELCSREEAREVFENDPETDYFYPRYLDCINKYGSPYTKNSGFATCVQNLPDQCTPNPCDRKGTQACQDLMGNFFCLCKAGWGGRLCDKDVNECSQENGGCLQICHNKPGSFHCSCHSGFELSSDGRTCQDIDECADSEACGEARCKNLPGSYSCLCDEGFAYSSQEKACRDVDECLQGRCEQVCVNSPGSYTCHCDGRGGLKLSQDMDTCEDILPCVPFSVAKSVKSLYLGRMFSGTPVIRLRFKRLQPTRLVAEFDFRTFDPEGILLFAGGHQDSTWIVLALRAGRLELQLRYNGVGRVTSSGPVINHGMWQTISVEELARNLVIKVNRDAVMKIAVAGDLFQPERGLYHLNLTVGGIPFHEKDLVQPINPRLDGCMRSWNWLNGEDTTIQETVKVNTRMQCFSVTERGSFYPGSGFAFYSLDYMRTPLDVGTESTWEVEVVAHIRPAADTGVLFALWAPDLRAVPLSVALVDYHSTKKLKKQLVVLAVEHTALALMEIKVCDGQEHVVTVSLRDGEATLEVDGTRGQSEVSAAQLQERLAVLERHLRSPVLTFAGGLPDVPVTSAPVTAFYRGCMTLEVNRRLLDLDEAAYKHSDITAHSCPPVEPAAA
Protocol: Equilibrium binding and association rate constants for all Gas6-Axl interactions were measured on a KinExA3200 instrument (Sapidyne Instruments Inc. Boise, Id.) as previously described. For equilibrium binding studies, three independent titrations were completed for each Axl Ig1 or Axl Fc fusion unless otherwise noted. […] After the appropriate incubation time, reactions were flowed over MYD1 Fc coated beads and captured free Gas6 was probed using an anti-6×HIS Dylight 649 antibody (#200-343-382, Rockland Immunochemicals Inc., Pottstown, Pa.). Each sample was measured twice and data from the three independent equilibrium binding experiments were globally analyzed using n-curve analysis in the KinExA Pro 3.6.2 software (Sapidyne Instruments Inc. Boise, Id.) to obtain the Kd value. To analyze the association rate of the interactions, the direct inject method was used. For these experiments, 1 μM Axl was serially diluted 1:2.5, and equal volumes of each Axl sample and 500 nM Gas6 were briefly mixed and flowed over the capture beads. Free Gas6 was detected as described and the data was fit using the KinExA Pro 3.6.2 software to obtain the association rate (kon) of the interaction. The dissociation rate (koff) was calculated as the product of the Kd and the kon.

[1] = system: Axl and FLT3 phosphorylation in AML cells; experiment: Western blot of Axl and FLT3 phosphorylation in AML cells; type: cell-based, human
Excerpt: Cell lysates subjected to sodium dodecyl sulfate polyacrylamide gel electrophoresis followed by transfer to nitrocellulose membrane. The membranes were then probed with primary antibodies against total Axl (AF154, R&D Systems, INC., Minneapolis, Minn.), phospho-Axl (T702; #5724, CST, Danvers, Mass.), total Akt (#4691 CST, Danvers, Mass.), phosphor-Akt (#4060, CST, Danvers, Mass.), anti-MERTK (#ab52968, Abcam, Cambridge, Mass.), phospho-MERTK (#ab14921 Abcam, Cambridge, Mass.), anti-Tyro3 (#5585, CST, Danvers, Mass.), phospho-Tyro3 (#orb186274, Biorbyt LLC, Berkely, Calif.), Bcl-2 Family Antibody Sampler Kit (#9934, CST, Danvers, Mass.), anti-Chk2 (#sc-5278, Santa Cruz Biotech, INC., Santa Cruz, Calif.), anti-XRCC1 (#2735, CST, Danvers, Mass.), anti-γH2AX (Merck Millipore #05636, Darmstadt, Germany), anti-phospho-ATM (#ab81292, Abcam, Cambridge, Mass.), anti-ATM (#ab78, Abcam, Cambridge, Mass.), anti phospho-ATR (#2853, CST, Danvers, Mass.), anti-ATR (#2790, CST, Danvers, Mass.), anti-Phospho Chk1 (#12302, CST, Danvers, Mass.), anti-Phospho Chk2 (#2197, CST, Danvers, Mass.) and anti-RPA32 (#2208, CST, Danvers, Mass.) at 4° C. overnight. The blots were then washed and probed with HRP conjugated anti-goat (#sc-2020, Santa Cruz Biotech, INC., Santa Cruz, Calif.), or HRP conjugated anti-rabbit (#A16110, Thermo Fisher Scientific, Walthan, Mass.) as appropriate. The blots were developed with Bio-Rad Western C developing reagent (#170-5060 Bio-Rad, Hercules, Calif.) and visualized with Chemidoc digital imager (#1708280, Bio-Rad, Hercules, Calif.).

free, circulating Gas6 [2] = target: T2, free, circulating Gas6 (Mus musculus, UniProt Q61592); experiment: In vivo Gas6 serum ELISA (sequestration of endogenous Gas6); conditions: single 0.5 mg/kg dose via tail vein, up to 36 hours
T2 construct: from tissue; host or cells: mouse serum (nude nu/nu mice)
T2 sequence (Q61592 28-674): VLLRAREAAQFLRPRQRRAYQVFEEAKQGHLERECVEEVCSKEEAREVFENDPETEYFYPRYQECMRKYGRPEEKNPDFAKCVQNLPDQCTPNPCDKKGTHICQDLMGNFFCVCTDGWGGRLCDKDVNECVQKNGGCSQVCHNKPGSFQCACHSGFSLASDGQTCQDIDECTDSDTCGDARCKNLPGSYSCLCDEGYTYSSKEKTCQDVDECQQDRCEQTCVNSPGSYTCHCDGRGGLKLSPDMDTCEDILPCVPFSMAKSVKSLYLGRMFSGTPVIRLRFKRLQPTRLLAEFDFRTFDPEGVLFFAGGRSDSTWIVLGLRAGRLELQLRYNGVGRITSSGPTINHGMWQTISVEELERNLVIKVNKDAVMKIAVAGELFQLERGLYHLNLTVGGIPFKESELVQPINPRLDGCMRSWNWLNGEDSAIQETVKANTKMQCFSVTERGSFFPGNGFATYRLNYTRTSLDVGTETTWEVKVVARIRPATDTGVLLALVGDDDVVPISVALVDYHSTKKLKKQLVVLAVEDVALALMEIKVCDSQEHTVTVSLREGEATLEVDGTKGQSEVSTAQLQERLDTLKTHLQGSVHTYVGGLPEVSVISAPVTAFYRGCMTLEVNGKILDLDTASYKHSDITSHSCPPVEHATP
Protocol: The amount of free, circulating Gas6 (i.e. not neutralized by the decoy receptor) was then quantified.
All doses were formulated in a 200 μl volume. Two mice were analyzed per condition and untreated mice were used to determine baseline Gas6 levels. At 2, 12, 24, and 36 h post-administration, retro-orbital bleeds were performed to obtain blood samples from which serum was isolated and free Gas6 was measured as previously described. The amount of free Gas6 in each sample was determined using a sandwich ELISA. In this assay, MYD1 Fc was used as a capture reagent in order to ensure the detection of free, unbound Gas6, and not Gas6/Axl Fc complexes. Detection of Gas6 was carried out using a biotinylated polyclonal anti-mouse Gas6 antibody (BAF986, R&D Systems, INC., Minneapolis, Minn.) and streptavidin HRP (#4800-30-06 Trevigen Inc., Gaithersburg, Md.).

free, circulating Gas6 [3] = target: T2, free, circulating Gas6; conditions: as previously determined using the same assay; cited from earlier work

B1: MYD1 Fc: Fc fusion of the first generation Axl decoy receptor MYD1 (protein)
chain: APRGTQAEESPFVSNPGNITGARGLTGTLRCQLQVQGEPPEVHWLRDGQILELADSTQTQVPLGEDEQGDWIVASQLRITSLQLSDTGQYQCLVFLGHQTFVSQPGYVRLEGLPYFLEEPEDRTVAANTPFNLSCQAQGPPEPVDLLWLQDAVPLATAPGHGPQRSLHVPGLNKTSSFSCEAHNAKGVTTSRTATITVLPQQPRNLHLVSRQPTELEVAWTPGLSGIYPLTHCTLQAVLSNDGMGIQAGEPDPPEEPLTSQASVPPHQLRLGSLHPHTPYHIRVACTSSQGPSSWTHWLPVETPEGVPLGPPENISATRNGSQAFVHWQEPRAPLQGTLLGYRLAYQGQDTPEVLMDIGLRQEVTLELQGDGSVSNLTVCVAAYTAAGDGPWSLPVPLEAWRPGQAQPVHQLVKEPSTPAFS
modifications: left off: a dimerising Fc or GST
Human Gas6; calculated as the product of the Kd and the kon
  koff: 1.0 10^−5 s^−1
Human Gas6; direct inject method
  kon: 2.3 10^7 M^−1 s^−1
[1]
  Axl and FLT3 phosphorylation: inhibited Axl and FLT3 phosphorylation
free, circulating Gas6 [2]
  free, circulating Gas6 in serum: rapidly eliminated free Gas6 upon administration
free, circulating Gas6 [3]
  in vivo IC50: 0.5 mg/kg
